This assay addresses RNA Pol II (UniProt P24928). Put plainly: cell-based or functional assay.

Our source for the cT of real-time PCR for GAPDH gDNA released from wells coated with the RNA Pol II antibody, compared with wells coated with the unspecific anti IgG antibody, delta between the cT's obtained using the specific RNA Pol II antibody and the unspecific anti-mouse IgG antibody (all three washing procedures) and delta between the cT's obtained using the specific RNA Pol II antibody and the unspecific anti-mouse IgG antibody (washing with LS buffer and TE) values is patent US20110065592A1.

Turning to “anti RNA Pol II antibody (Santa Cruz sc-899)”, the cT of real-time PCR for GAPDH gDNA released from wells coated with the RNA Pol II antibody, compared with wells coated with the unspecific anti IgG antibody was less than 5 cT; the delta between the cT's obtained using the specific RNA Pol II antibody and the unspecific anti-mouse IgG antibody (all three washing procedures) is more than 0 cT; the delta between the cT's obtained using the specific RNA Pol II antibody and the unspecific anti-mouse IgG antibody (washing with LS buffer and TE) was determined as 3.3 cT.
